The assay deals with Recombinant His-tagged S6K1 T389E/S424D/S429D (S6K1*), in vitro translated (human, UniProt P23443-2 1-502, T389E | S424D | S429D). In words: SPR. For orientation: Surface plasmon resonance follows binding to a sensor surface in real time, without labels.
Chain of Recombinant His-tagged S6K1 T389E/S424D/S429D (S6K1*), in vitro translated (P23443 24-525 T412E/S447D/S452D): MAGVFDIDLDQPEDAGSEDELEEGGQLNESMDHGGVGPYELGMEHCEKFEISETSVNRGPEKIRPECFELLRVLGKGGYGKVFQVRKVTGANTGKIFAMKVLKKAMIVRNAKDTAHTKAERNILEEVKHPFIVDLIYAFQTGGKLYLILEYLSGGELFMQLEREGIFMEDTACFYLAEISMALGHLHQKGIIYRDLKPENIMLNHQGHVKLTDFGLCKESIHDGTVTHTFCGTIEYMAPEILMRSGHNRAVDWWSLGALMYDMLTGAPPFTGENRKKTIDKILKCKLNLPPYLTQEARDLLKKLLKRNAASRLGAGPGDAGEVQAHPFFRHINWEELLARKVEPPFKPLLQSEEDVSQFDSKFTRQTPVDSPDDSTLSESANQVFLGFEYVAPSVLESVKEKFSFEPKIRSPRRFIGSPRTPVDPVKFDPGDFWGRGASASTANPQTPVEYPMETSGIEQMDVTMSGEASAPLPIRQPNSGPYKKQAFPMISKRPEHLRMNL

B1: EPRS linker (Pro683 to Asn1023 of human glutamyl-prolyl tRNA synthetase), His tag removed (domain or fragment, UniProt P07814 683-1023, looked up)
chain: PYEPVSPYSCKEAPCVLIYIPDGHTKEMPTSGSKEKTKVEATKNETSAPFKERPTPSLNNNCTTSEDSLVLYNRVAVQGDVVRELKAKKAPKEDVDAAVKQLLSLKAEYKEKTGQEYKPGNPPAEIGQNISSNSSASILESKSLYDEVAAQGEVVRKLKAEKSPKAKINEAVECLLSLKAQYKEKTGKEYIPGQPPLSQSSDSSPTRNSEPAGLETPEAKVLFDKVASQGEVVRKLKTEKAPKDQVDIAVQELLQLKAQYKSLIGVEYKPVSATGAEDKDKKKKEKENKSEKQNKPQKQNDGQRKDPSKNQGGGLSSSGAGEGQGPKKQTRLGLEAKKEEN
In general, Kd refers to the constant that tells how readily two partners part at equilibrium. Take B1: the Kd is 56 nM.

For the origin of these results see PMC6415305 (Molecular cell, 2019).
